Source: paper PMC4236683 (2014)

Assays:
PlexinA2 = target: T1, PlexinA2 (Mus musculus, UniProt P70207); test: saturation binding
T1 chain: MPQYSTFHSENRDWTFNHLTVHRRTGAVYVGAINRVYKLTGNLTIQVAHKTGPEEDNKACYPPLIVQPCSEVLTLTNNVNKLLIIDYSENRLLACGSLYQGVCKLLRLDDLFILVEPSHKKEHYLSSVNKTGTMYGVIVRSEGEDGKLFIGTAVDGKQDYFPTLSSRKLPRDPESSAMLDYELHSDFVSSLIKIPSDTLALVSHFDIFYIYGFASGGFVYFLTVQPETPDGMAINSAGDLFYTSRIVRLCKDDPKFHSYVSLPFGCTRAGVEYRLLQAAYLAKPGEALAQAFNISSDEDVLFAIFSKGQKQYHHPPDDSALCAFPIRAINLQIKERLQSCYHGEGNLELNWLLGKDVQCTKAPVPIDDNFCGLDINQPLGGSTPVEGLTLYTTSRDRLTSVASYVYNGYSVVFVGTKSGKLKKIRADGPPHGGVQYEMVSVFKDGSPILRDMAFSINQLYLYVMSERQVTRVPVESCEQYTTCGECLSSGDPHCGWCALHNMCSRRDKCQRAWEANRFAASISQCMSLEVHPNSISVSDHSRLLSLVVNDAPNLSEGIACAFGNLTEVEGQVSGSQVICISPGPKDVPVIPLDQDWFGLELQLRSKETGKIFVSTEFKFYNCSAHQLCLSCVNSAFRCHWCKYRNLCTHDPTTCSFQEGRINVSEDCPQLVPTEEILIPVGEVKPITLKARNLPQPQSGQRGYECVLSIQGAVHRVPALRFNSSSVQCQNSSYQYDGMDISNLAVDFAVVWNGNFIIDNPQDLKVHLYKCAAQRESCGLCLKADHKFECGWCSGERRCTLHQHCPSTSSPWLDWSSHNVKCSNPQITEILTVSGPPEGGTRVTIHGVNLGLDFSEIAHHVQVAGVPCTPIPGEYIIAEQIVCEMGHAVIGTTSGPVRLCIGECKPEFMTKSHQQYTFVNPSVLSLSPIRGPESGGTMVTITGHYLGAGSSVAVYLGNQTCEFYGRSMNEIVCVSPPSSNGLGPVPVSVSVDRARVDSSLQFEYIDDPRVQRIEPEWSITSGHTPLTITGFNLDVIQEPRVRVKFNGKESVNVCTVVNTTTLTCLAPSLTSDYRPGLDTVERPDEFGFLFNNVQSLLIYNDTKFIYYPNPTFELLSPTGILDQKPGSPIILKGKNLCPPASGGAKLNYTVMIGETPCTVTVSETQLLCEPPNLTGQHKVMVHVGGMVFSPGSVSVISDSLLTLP

PlexinA1 = PlexinA1 (Mus musculus, UniProt P70206); test: saturation binding
PlexinA1, sequence (P70206 28-1242): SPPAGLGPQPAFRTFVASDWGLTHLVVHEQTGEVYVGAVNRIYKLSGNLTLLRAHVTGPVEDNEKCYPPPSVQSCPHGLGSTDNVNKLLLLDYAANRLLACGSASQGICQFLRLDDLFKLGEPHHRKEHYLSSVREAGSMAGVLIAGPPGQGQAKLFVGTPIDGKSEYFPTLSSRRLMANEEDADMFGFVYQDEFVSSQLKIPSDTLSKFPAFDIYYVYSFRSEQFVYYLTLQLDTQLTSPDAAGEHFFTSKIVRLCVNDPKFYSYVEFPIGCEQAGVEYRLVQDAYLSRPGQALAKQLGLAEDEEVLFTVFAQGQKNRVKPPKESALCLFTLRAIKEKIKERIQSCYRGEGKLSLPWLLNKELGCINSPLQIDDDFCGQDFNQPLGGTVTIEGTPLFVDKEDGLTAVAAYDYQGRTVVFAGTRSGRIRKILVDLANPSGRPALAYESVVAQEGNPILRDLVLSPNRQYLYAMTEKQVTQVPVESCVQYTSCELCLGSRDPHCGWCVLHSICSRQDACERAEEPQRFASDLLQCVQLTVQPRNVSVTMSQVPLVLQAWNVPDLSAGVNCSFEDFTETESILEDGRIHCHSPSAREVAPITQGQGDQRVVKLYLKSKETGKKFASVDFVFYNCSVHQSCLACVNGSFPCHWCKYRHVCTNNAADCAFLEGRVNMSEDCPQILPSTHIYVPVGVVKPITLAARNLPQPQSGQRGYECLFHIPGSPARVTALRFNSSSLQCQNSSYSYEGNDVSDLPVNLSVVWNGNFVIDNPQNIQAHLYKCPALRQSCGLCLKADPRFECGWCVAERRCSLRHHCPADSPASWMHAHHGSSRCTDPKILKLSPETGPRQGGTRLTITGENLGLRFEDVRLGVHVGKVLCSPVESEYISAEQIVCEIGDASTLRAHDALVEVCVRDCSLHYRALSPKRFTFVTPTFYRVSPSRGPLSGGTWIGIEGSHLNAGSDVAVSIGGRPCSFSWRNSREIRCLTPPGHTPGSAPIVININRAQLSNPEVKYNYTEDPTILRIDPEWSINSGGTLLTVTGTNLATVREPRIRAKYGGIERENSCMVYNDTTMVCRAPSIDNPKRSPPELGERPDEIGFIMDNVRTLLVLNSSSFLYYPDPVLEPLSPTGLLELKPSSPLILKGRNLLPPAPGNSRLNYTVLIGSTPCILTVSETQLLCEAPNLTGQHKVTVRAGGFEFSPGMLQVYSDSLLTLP

B1: Sema5A-Fc (protein)
chain: PETQDPAKCQRAEHPVVSYKEIGPWLREFRAENAVDFSRLTFDPGQKELVVGARNYLFRLELEDLSLIQAVEWECDEATKKACYSKGKSKEECQNYIRVLLVGGDRLFTCGTNAFTPVCTIRSLSNLTEIHDQISGMARCPYSPQHNSTALLTASGELYAATAMDFPGRDPAIYRSLGTLPPLRTAQYNSKWLNEPNFVSSYDIGNFTYFFFRENAVEHDCGKTVFSRPARVCKNDIGGRFLLEDTWTTFMKARLNCSRPGEVPFYYNELQGTFFLPELDLIYGIFTTNVNSIASSAVCVFNLSAISQAFNGPFKYQENSRSAWLPYPNPNPNFQCGTMDQGLYVNLTERNLQDAQKFILMHEVVQPVTTVPSFMEDNSRFSHLAVDVVQGRETLVHIIYLGTDYGTIKKVRAPLSQSSGSCLLEEIELFPERRSEPIRSLQILHSQSVLFVGLQEHVAKIPLKRCHFHQTRSACIGAQDPYCGWDAVMKKCTSLEESLSMTQWDQSIPTCPTRNLTVDGSFGPWSPWTPCTHTDGTAVGSCLCRSRSCDRPAPQCGGWQCEGPRMEITNCSRNGGWTPWTSWSPCSTTCGIGFQVRQRSCSNPTPRHGGRVCVGQNREERYCNEHLLCPPHVFWTGWGPWERCTAQCGGGIQARRRTCENGPDCAGSNVEYHPCNTNACPELKKTTPWTPWTPVNISDNGGHYEQRFRYTCKARLPDPNLLEVGRQRIEMRYCSSDGTSGCSTDGLSGDFLRAGRYSAHTVNGAWSAWTSWSQCSRDCSRGIRNRKRVCNNPEPKFGGMPCLGPSLEFQECNILPCPVDGVWSCWSSWSKCSATCGGGHYMRTRSCSNPAPAYGGDICLGLHTEEALCNTQTCPESWSEWSDWSVCDASGTQVRARQCILLFPVGSQCSGNTTESRPCVFDSNFIPEVSVARSSSVEEKRCGEFNMFHM
Kd (PlexinA2): ~11.5 nM
Kd (PlexinA1): ~11.5 nM
